Where a chain is given by its changes, count along the chain named. Names and notes keep the numbering of the source.
B1: C2691 (antibody, V domains shown)
VH: QVQLQQSGPELVRPGESVKISCKGSGYTFTDYAMHWVKQSHAKSLEWIGIISFYYDNTKYNQNFKGKATMTVDKSSSTAYMELARLTSEDSAIYFCASQGIHYYGSFAYWGQGTLVTVSA
VL: DIVMTQSQKFMSTSVGDRVSVSCKASQNVGTNLGWYQQKPGQSPKALIYSASYRYSGVPDRFTGSGSGTDFTLTISNVQSEDLAEYFCQQYNSSPLTFGAGTKLELK
notes: also called lineage HV1-67/KV6-15 antibody C2691
B2: I109A (antibody, V domains shown)
VH: B1 VH with I101A
VL: B1 VL
notes: member of the group m29; also called C2691 I109A; C2691 CDR3 alanine scanning mutant
B3: Y112A (antibody, V domains shown)
VH: B1 VH with Y104A
VL: B1 VL
notes: member of the group m29; also called C2691 Y112A; C2691 CDR3 alanine scanning mutant
B4: H110A (antibody, V domains shown)
VH: B1 VH with H102A
VL: B1 VL
notes: member of the group m29; also called C2691 H110A; C2691 CDR3 alanine scanning mutant
B5: Y111A (antibody, V domains shown)
VH: B1 VH with Y103A
VL: B1 VL
notes: member of the group m29; also called C2691 Y111A; C2691 CDR3 alanine scanning mutant
B6: Q107A (antibody, V domains shown)
VH: B1 VH with Q99A
VL: B1 VL
notes: member of the group m29; also called C2691 Q107A; C2691 CDR3 alanine scanning mutant

molecular target: T1, CoV2_5P_FPKO1 (SARS-CoV-2, UniProt P0DTC2 14-1208); experiment: ELISA
T1 construct: also called 5P KO1

| Binder | binding result |
| --- | --- |
| B1 | binds |

molecular target: T2, CoV2_5P prefusion-stabilized spike protein (SARS-CoV-2, UniProt P0DTC2 14-1208); experiment: ELISA, AUC ratio to wildtype C2691
T2 construct: also called 5P trimer; wildtype 5P

| Binder | binding result |
| --- | --- |
| B2 | binds |
| B3 | binds |
| B4 | binds |

molecular target: T3, CoV2_5P_NonSFP (SARS-CoV-2, UniProt P0DTC2 14-1208); experiment: ELISA, AUC, on 5P spikes with swapped fusion peptides
T3 construct: also called scrambled fusion peptide spike

| Binder | binding result |
| --- | --- |
| B5 | no binding |
| B2 | no binding |
| B6 | no binding |
| B3 | no binding |
| B4 | no binding |
